According to the supplement of paper PMC10567573:
± gives the standard deviation.

Assay: protein stability index of a GFP-peptide fusion (GPS, HEK-293T) (PSI 1-6); higher = more stable
[1] = treatment: DMSO, c terminus: a fixed tail appended
[2] = treatment: MLN4924 1 uM, 8 h, c terminus: a fixed tail appended
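Also: 24-mer peptide tiles fused after GFP, lentivirally expressed, FACS-sorted into six equal bins by GFP/DsRed ratio, decoded by Illumina sequencing, PSI is the read-weighted mean bin number.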

Row | Sequence | protein stability index [1] | protein stability index [2] | protein stability index (treatment: DMSO, c terminus: native) | protein stability index (treatment: MLN4924 1 uM, 8 h, c terminus: native)
1 | VQFSHHVFLNLHTLKFYCLPDNYE [USP39] | 2.89 ± 0.61 | 3.04 ± 0.74 |  | 
2 | PMVNHAEASRLNIERMKQIYQQLS [CRY1] | 2.81 ± 0.34 | 2.77 ± 0.25 |  | 
3 | TGVELAPRSAEPGYLVTKVVAVDR [PCDHGA10] | 3.94 ± 0.34 | 3.93 ± 0.084 |  | 
4 | NVPVDDSLVKELLRMCSHGEGKIN [EFHC1] | 3.39 ± 0.2 | 3.55 ± 0.11 |  | 
5 | MRLSKTLVDMDMADYSAALDPAYT [HNF4A] | 2.86 ± 0.28 | 3.08 ± 0.25 |  | 
6 | LRTLSRAKFWPRRRFNFFVLENNL [DNAAF3] | 2.33 ± 0.99 | 2.15 ± 0.087 |  | 
7 | ISSIKEKYPSHSFIGEESVAAGEK [IMPA1] | 4.8 ± 0.13 | 4.81 ± 0.23 |  | 
8 | EDWVLLGMANGQQWLQSTSGSQRH [TLE6] | 3.41 ± 0.5 | 3.2 ± 0.4 |  | 
9 | MAALSRALGPLRTPAPPLWIGLFL | 2.35 ± 0.26 | 2.28 ± 0.63 |  | 
10 | QADLLAHLVPEPDRLEEQLPWLSL [DNAAF3] | 2.34 ± 0.25 | 2.48 ± 0.28 |  | 
11 | RGKRGYSRGLHAWEISWPLEQRGT [SPSB2] | 2.88 ± 0.087 | 3.03 ± 0.41 |  | 
12 | KKLRFHPKQLYFSARQGELQKVLL [EHMT1] | 3.28 ± 0.71 | 2.63 ± 0.45 |  | 
13 | YGYNNVVTIPAGATHILVRQQGNP [ADAMTS4] | 2.53 ± 0.13 | 2.72 ± 0.34 |  | 
14 | LGIPKNPWLWSEQQVCQWLLWATN [ETS2] | 2.29 ± 0.3 | 2.33 ± 0.15 |  | 
15 | SFMDGYKQKNAYIGTQGPLENTYR [PTPN9] | 3.04 ± 0.16 | 2.92 ± 0.24 |  | 
16 | LRSSDLYRHQRLHTGERPYECTVC [ZNF449] | 3.05 ± 0.17 | 3.17 ± 0.29 |  | 
17 | VAREYYSEADASHCIQQILESVNH [CAMK2D] | 3.46 ± 0.17 | 3.37 ± 0.3 |  | 
18 | LVEETSCQQNMIQELIETNQQLRN [CEP70] | 4.3 ± 0.24 | 4.41 ± 0.3 |  | 
19 | CWDMYRHDIDCQWVDITDVPPGDY [LOXL2] | 2.7 ± 0.36 | 3.11 ± 0.3 |  | 
20 | MMSVNGQAKTHTDSSEKELEPEAA [ACBD3] | 5.45 ± 0.21 | 5.38 ± 0.23 |  | 
21 | VCSSNKPAIVEAGGMQALGLHLTD [CTNNB1] | 4.04 ± 0.087 | 3.89 ± 0.16 |  | 
22 | TLKFYCLPDNYEIIDSSLEDITYV [USP39] | 2.18 ± 0.047 | 2.29 ± 0.19 |  | 
23 | EDGVWYSVAPMNVRRGLAGATTLG [KLHL12] | 3.17 ± 0.23 | 3.3 ± 0.17 |  | 

Row | Sequence | protein stability index [1] | protein stability index [2] | protein stability index (treatment: DMSO, c terminus: native) | protein stability index (treatment: MLN4924 1 uM, 8 h, c terminus: native)
24 | RPTPQDWLHRRAQILEILRRRPWA [ADAMTS4] | 2.63 ± 0.13 | 3.1 ± 0.48 |  | 
25 | SSQESGEEAGSQENHPQESKGQPR [CHGB] | 5.7 ± 0.16 | 5.73 ± 0.097 |  | 
26 | SYEKAVKTRVDLKELGQSQKEQGL [PDZK1] | 4.75 ± 0.15 | 4.84 ± 0.12 |  | 
27 | GFSPIIGRFCGQQNPPVIKSSGRF [NETO1] | 2.42 ± 0.29 | 2.52 ± 0.75 |  | 
28 | SMNRVKNISDADVHNAMDNYECNL [FEM1B] | 4.18 ± 0.29 | 4.3 ± 0.29 |  | 
29 | GKWQQQGDLQDTKENREEARFQDK [CHGB] | 5.44 ± 0.36 | 5.33 ± 0.16 |  | 
30 | NELVKCIEELCQKREELCRQIQEE [SSNA1] | 3.62 ± 0.33 | 3.76 ± 0.26 |  | 
31 | SHCSQLTTLSFYGNSISISALQSL [PRAME] | 2.87 ± 0.72 | 2.78 ± 0.58 |  | 
32 | ASVVLPARELQEALPEAPAPLLPH [BCL2L13] | 4.34 ± 0.17 | 4.35 ± 0.22 |  | 
33 | IEKVSVSTQTKKLSASSPRMLHRS [ZMYND11] | 3.96 ± 0.23 | 4.03 ± 0.34 |  | 
34 | LAHAFQPGPGIGGDAHFDEDERWT [MMP1] | 4.73 ± 0.14 | 4.53 ± 0.21 |  | 
35 | AQKALDLPSSGEGLAFFTFPNIAS [HMOX1] | 2.88 ± 0.2 | 2.96 ± 0.25 |  | 
36 | ARRELQAEREALQARLRDVSRREG [ZBED3] | 4.79 ± 0.15 | 4.8 ± 0.18 |  | 
37 | HGASPGLRDGGGLTPLELLLRQLG [ANKRD9] | 2.66 ± 0.15 | 2.76 ± 0.35 |  | 
38 | LFVGVDCFLLTAMAYDQFLAICRP [OR3A1] | 3.63 ± 0.6 | 3.13 ± 0.071 |  | 
39 | ELVLPFQELQIDDNEYAYLKAIIF [HNF4A] | 2.16 ± 0.14 | 2.37 ± 0.35 |  | 
40 | NCKPLKSYMLQDSLEHVQLFDLMR [CLK3] | 2.11 ± 0.31 | 2.25 ± 0.35 |  | 
41 | SGYGFRPSMVSGGYVANSSNCISG [KRT71] | 2.82 ± 0.2 | 2.73 ± 0.16 |  | 
42 | GMSLAKELIFSARVLDGKEAKAVG [AUH] | 3.45 ± 0.13 | 3.48 ± 0.17 |  | 
43 | VHRGDGANPFQAYLDVDLTLTREQ [RTN2] | 3.88 ± 0.088 | 3.82 ± 0.25 |  | 
44 | NTEERQKRQVTHFQFLSWPDYGVP [PTPN9] | 3.17 ± 0.57 | 3.042 ± 0.028 |  | 
45 | EDIVFETDHILESLYRDIRDIQDE [STX11] | 4.08 ± 0.12 | 4.31 ± 0.14 |  | 
46 | LFGFYFCMPLVCTAIFYTLMTCEM [EDNRA] | 3.11 ± 0.33 | 3.14 ± 0.42 |  | 

Row | Sequence | protein stability index [1] | protein stability index [2] | protein stability index (treatment: DMSO, c terminus: native) | protein stability index (treatment: MLN4924 1 uM, 8 h, c terminus: native)
47 | SRDSAAITHSTYSLPASSYSQDPV [NOL4L] | 4.54 ± 0.12 | 4.62 ± 0.15 |  | 
48 | MAAAEPSPRRVGFVGAGRMAGAIA [PYCR3] | 2.97 ± 0.079 | 3.38 ± 0.073 |  | 
49 | QVQSMVVGEVLKDIETACKLLNIT [SPDEF] | 2.42 ± 0.36 | 2.39 ± 0.35 |  | 
50 | CDLFDREIVVTISWAKSIPGFSSL [ESRRA] | 3.28 ± 0.16 | 2.97 ± 0.4 |  | 
51 | LRLEREEYVLLKALALANSDSVHI [ESRRA] | 2.51 ± 0.15 | 2.27 ± 0.2 |  | 
52 | FCMFYAVLGIPLTLVMFQSLGERM [KCNK9] | 3.7 ± 0.32 | 2.95 ± 0.31 |  | 
53 | TPWALALLRTFDAGEFTGWEKVGS [RIPK4] | 2.29 ± 0.61 | 1.49 ± 0.13 |  | 
54 | GRRVNAKMPVYSGSRPACQLQVPT [ELOA2] | 3.11 ± 0.32 | 3.49 ± 0.44 |  | 
55 | TDRRVLLMFLDICSELNKLCQHFE [SPACA9] | 2.44 ± 0.56 | 2.38 ± 0.42 |  | 
56 | TCRPPSSSESSSDSDNSGGGGGGG [ANKRD17] | 5.44 ± 0.24 | 5.43 ± 0.26 |  | 
57 | SRLLFFLLGFLRIRVRGQRASRLQ [LPCAT4] | 2.35 ± 0.09 | 2.58 ± 0.31 |  | 
58 | SHPDTSYYIRYRGAVYADSGNFER [FEM1A] | 2.88 ± 0.38 | 2.83 ± 0.28 |  | 
59 | SVAFAVAWFLPMPQKSLFFHHIPS [SLC19A2] | 3.65 ± 0.2 | 3.31 ± 0.23 |  | 
60 | DLSVPLMDVGETAMVTADSKYCYG [FKBP8] | 4.1 ± 0.31 | 4.44 ± 0.22 |  | 
61 | AAAYGHALEQYEGESWRESARYLE [P3H4] | 4.19 ± 0.23 | 4.21 ± 0.21 |  | 
62 | QTQTVAAQAQALAAQAAAAAHAAQ [PI4K2A] | 4.33 ± 0.22 | 4.42 ± 0.19 |  | 
63 | VQLAQQQAALQKQQEVVVAGSSLP [ACBD3] | 4.12 ± 0.11 | 4.49 ± 0.26 |  | 
64 | MATRSSDWLRRPLGEDNQPETQLF [TLE6] | 3.91 ± 0.1 | 3.87 ± 0.1 |  | 
65 | GLSDRAKEAKEFLVQLRNMVQQIQ [TRIM9] | 2.17 ± 0.56 | 2.2 ± 0.23 |  | 
66 | DEHIASEEPAEKEDLLQQMLERRY [CLCN6] | 5.03 ± 0.2 | 4.98 ± 0.16 |  | 
67 | RTSPSCAFRSDDTKGHPRAVSQPF [CDC14A] | 3.57 ± 0.22 | 3.62 ± 0.37 |  | 
68 | KETDPLTFNFISSLKAICTEIANC [PLD5] | 2 ± 0.27 | 2.05 ± 0.1 |  | 
69 | HVPLLAEPSFAQFSQEIGLASLGA [TPH1] | 2.93 ± 0.26 | 3.09 ± 0.12 |  | 

Row | Sequence | protein stability index [1] | protein stability index [2] | protein stability index (treatment: DMSO, c terminus: native) | protein stability index (treatment: MLN4924 1 uM, 8 h, c terminus: native)
70 | IDLLTFLTGQKAVKVHGLLKTFVK [GFOD1] | 2.93 ± 0.62 | 2.67 ± 0.31 |  | 
71 | NDRLYAIGGNHLKGFSHLDVMLVE [KLHL14] | 2.35 ± 0.33 | 2.58 ± 0.17 |  | 
72 | WKNTKKMGVGKASASDGSSFVVAR [GLIPR2] | 3.64 ± 0.27 | 3.71 ± 0.3 |  | 
73 | SVSLNKTARPFGAPPPADSAPQQN [PDLIM7] | 4.42 ± 0.11 | 4.46 ± 0.13 |  | 
74 | PYKKPYMETSPSEEDSFYRSSYPQ [TBX5] | 3.91 ± 0.47 | 3.65 ± 0.41 |  | 
75 | YKVKERLGTLKNPPKKKMKLMSG [LCOR] |  |  | 2.51 ± 0.41 | 3.27 ± 0.068
76 | MNEVEKTMEYSMVGRTVLDMLIRE [RSPH3] | 2.59 ± 0.56 | 2.16 ± 0.22 |  | 
77 | LEKSNKNFSKKIQQIHVVSQFKIL [VPS39] | 2.17 ± 0.24 | 2.07 ± 0.26 |  | 
78 | LLKYRAREPVTKAEMLGSVVGNWQ [MAGEA3] | 2.39 ± 0.2 | 2.51 ± 0.28 |  | 
79 | KPYACDECAKAFSRSAILIQHRRT [ZNF396] | 2.12 ± 0.11 | 2.37 ± 0.19 |  | 
80 | NERDSSEPGNFIPLFTPQSPVTAT [CDC25A] | 4.65 ± 0.48 | 4.65 ± 0.33 |  | 
81 | LLEQSLEEFAQAESKDQGKTLALA [ALDH8A1] | 4.68 ± 0.33 | 4.68 ± 0.14 |  | 
82 | SYYIIQHKPKNSEELYKEIDGVAT [PTPRD] | 2.98 ± 0.4 | 3.18 ± 0.66 |  | 
83 | PSRYAAIYNGGVEAVSTLLGAVAV [SLC19A2] | 2.28 ± 0.15 | 2.06 ± 0.37 |  | 
84 | SGASPKESTNPEKAHETLHQSLSL [CDC25A] | 4.95 ± 0.12 | 4.83 ± 0.11 |  | 
85 | HLVPEPDRLEEQLPWLSLRALKFR [DNAAF3] | 2.63 ± 0.1 | 2.78 ± 0.26 |  | 
86 | LEEENKERAKREMVMYSITVAFWL [MFF] | 2.29 ± 0.55 | 2.82 ± 0.46 |  | 
87 | PNGLEAAYEFADRDEVRFFKGNKY [MMP1] | 3.74 ± 0.44 | 3.83 ± 0.3 |  | 
88 | GTDIVRGCDPLVKPVGRQACDLQP [ADAMTSL2] | 4.08 ± 0.22 | 4.22 ± 0.059 |  | 
89 | GQCQVLVQRSPWLMMRMGILGRGL [TCAP] | 2.2 ± 0.14 | 2.14 ± 0.16 |  | 
